{"source": "patent US20230303666A1", "key": {"[1]": {"target": "SARS-CoV-2 spike receptor binding domain with C-terminal 3xFlag tag (RBD-3xFlag) (SARS-CoV-2) (UniProt P0DTC2)"}, "[2]": {"target": "SARS-CoV-2 spike receptor binding domain with C-terminal 3xFlag tag (RBD-3xFlag) (SARS-CoV-2) (UniProt P0DTC2)", "remark": "listed apart in the source"}}, "data": [{"substance": "VHH72", "values": [{"measurement": "heated/non heated ratio of ELISA reading", "setting": "[1]", "result": 0.33}, {"measurement": "ELISA A450", "setting": "[2]", "result": 0.287, "unit": "A450"}]}]}
